Source: US20210380703A1 (RIGEL PHARMACEUTICALS, published 2021)
Numbering of substitutions follows the chain as printed. One block for each binder: values may come before it.

Legend:
Mouse ACVR2A = Mouse ACVR2A (mouse, UniProt P27038 20-135, limits assumed); test: ELISA
Procedure, shortened: (§1)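 mAb binding by ELISA; antigens: hu ACVR2A, mu ACVR2A; pos ctrl biotinylated goat anti-hu kappa LC; neg ctrl hu Fc.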

Human ACVR2A = molecular target: T1, Human ACVR2A (human, UniProt P27037 20-135, limits assumed); test: ELISA
T1 construct: also called activin receptor, type II A
T1 sequence (P27037 20-135 limits assumed): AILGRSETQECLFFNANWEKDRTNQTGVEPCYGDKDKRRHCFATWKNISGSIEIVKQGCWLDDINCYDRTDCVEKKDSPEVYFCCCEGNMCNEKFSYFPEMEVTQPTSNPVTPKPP
Procedure, shortened: as §1

Goat anti-Human Kappa = molecular target: T2, Goat anti-Human Kappa; test: ELISA, positive control
T2 construct: Positive control of the ELISA; also called biotinylated goat anti-human kappa light chain
Procedure, shortened: as §1
Further: test concentration or dose not given here.

Chain of Mouse ACVR2A (P27038 20-135 limits assumed): as the sequence (P27037 20-135 limits assumed) above, with K20R, V73I counted along it

optical density (Mouse ACVR2A): 3.35 OD
optical density (Human ACVR2A): 3.07 OD
optical density (Goat anti-Human Kappa): 3.56 OD
B1: 369_F02 (antibody, V domains shown)
VH: EVQLLESGGGLVQPGGSLRLSCAASGFTFSSYGMNWVRQAPGKGLEWVASINYNSGYKSYADSVKGRFTISRDNSKNTLYLQMNSLRAEDTAVYYCARSANWHDTALDYWGQGTLVTVSS
VL: DIQMTQSPSSLSASVGDRVTITCRASQSIVSYLNWYQQKPGKAPKLVIYAATSRASGVPSRFSGSGSGTDFTLTISSLQPEDFATYYCQQSYDTPLTFGGGTKVEIK

optical density (Mouse ACVR2A): 3.23 OD
optical density (Human ACVR2A): 3.05 OD
optical density (Goat anti-Human Kappa): 3.67 OD
B2: 369_F10 (antibody, V domains shown)
VH: B1 VH with S30D, A49S, S50N
VL: B1 VL with S31T, V47L, A51V, T94L

optical density (Mouse ACVR2A): 3.77 OD
optical density (Human ACVR2A): 3.59 OD
optical density (Goat anti-Human Kappa): 3.57 OD
B3: 370_C03 (antibody, V domains shown)
VH: B1 VH with S50G, S55G, S59G
VL: B1 VL with V30L, S31T, V47L, A50Y, A51V, S53N, A55Q, D93S, T94S

optical density (Mouse ACVR2A): 2.96 OD
optical density (Human ACVR2A): 2.86 OD
optical density (Goat anti-Human Kappa): 3.62 OD
B4: 370_A01 (antibody, V domains shown)
VH: B1 VH with G33S, A49S, S50G
VL: B1 VL with V30S, S31T, D93N, T94L

optical density (Mouse ACVR2A): 2.79 OD
optical density (Human ACVR2A): 2.72 OD
optical density (Goat anti-Human Kappa): 3.38 OD
B5: 370_D11 (antibody, V domains shown)
VH: B1 VH with S30D, G33S, A49S, S50G, S55G, K58T, S59G
VL: B1 VL with V47L

optical density (Mouse ACVR2A): 3.56 OD
optical density (Human ACVR2A): 3.23 OD
optical density (Goat anti-Human Kappa): 3.5 OD
B6: 369_H06 (antibody, V domains shown)
VH: B1 VH with S50N, S55G
VL: B1 VL with L33V, V47L

optical density (Mouse ACVR2A): 2.97 OD
optical density (Human ACVR2A): 2.73 OD
optical density (Goat anti-Human Kappa): 3.11 OD
B7: 370_C08 (antibody, V domains shown)
VH: B1 VH with S50G, S55G, S59G
VL: B1 VL with V30S, S31N, V47L, A51V, T94S

optical density (Mouse ACVR2A): 2.64 OD
optical density (Human ACVR2A): 2.36 OD
optical density (Goat anti-Human Kappa): 3.51 OD
B8: 369_H09 (antibody, V domains shown)
VH: B1 VH with S30D, S31D, G33S, A49S, S50G, S55G, K58T
VL: B1 VL with V30L, L33V, V47L, A51V, R54L, D93E, T94S

optical density (Mouse ACVR2A): 2.91 OD
optical density (Human ACVR2A): 2.98 OD
optical density (Goat anti-Human Kappa): 3.38 OD
B9: 369_G06 (antibody, V domains shown)
VH: B1 VH with S30D, S50G, S55G, K58T
VL: B1 VL with V30L, L33V, D93E, T94N

optical density (Mouse ACVR2A): 2.69 OD
optical density (Human ACVR2A): 2.37 OD
optical density (Goat anti-Human Kappa): 3.32 OD
B10: 369_G04 (antibody, V domains shown)
VH: B1 VH with S30D, G33S, A49S, S50G, S55G, K58T
VL: B1 VL with V30L, S31T, L33V, V47L, A51T, A55H, D93E

optical density (Mouse ACVR2A): 3.06 OD
optical density (Human ACVR2A): 3.03 OD
optical density (Goat anti-Human Kappa): 2.59 OD
B11: 369_G11 (antibody, V domains shown)
VH: B1 VH with G33S, S50N, S59G
VL: B1 VL with V30L, S31T, V47L, R54L, D93E, T94S

optical density (Mouse ACVR2A): 2.25 OD
optical density (Human ACVR2A): 1.97 OD
optical density (Goat anti-Human Kappa): 3.48 OD
B12: 370_C09 (antibody, V domains shown)
VH: B1 VH with S30D, A49S, S50G, S55G, K58T
VL: B1 VL with V30I, R54L, D93S

optical density (Mouse ACVR2A): 3.67 OD
optical density (Human ACVR2A): 3.57 OD
optical density (Goat anti-Human Kappa): 3.44 OD
B13: 369_G01 (antibody, V domains shown)
VH: B1 VH with G33S, A49S, S50N
VL: B1 VL with V30L, L33V, V47L, D93S, T94S

optical density (Mouse ACVR2A): 3.56 OD
optical density (Human ACVR2A): 3.45 OD
optical density (Goat anti-Human Kappa): 3.6 OD
B14: 370_E09 (antibody, V domains shown)
VH: EVQLLESGGGLVQPGGSLRLSCAASGFTFDDSSMHWVRQAPGKGLEWVSNINYNGGYTGYADSVKGRFTISRDNSKNTLYLQMNSLRAEDTAVYYCAKSANWHDTALDYWGQGTLVTVSS
VL: B1 VL with V30L, L33V, D93E, T94L

optical density (Mouse ACVR2A): 3.38 OD
optical density (Human ACVR2A): 3.29 OD
optical density (Goat anti-Human Kappa): 3.62 OD
B15: 370_C01 (antibody, V domains shown)
VH: B14 VH with D31S, S32Y, H35N, N50G, G55S, K98R
VL: B1 VL with V30L, S31T, R54L

optical density (Mouse ACVR2A): 2.74 OD
optical density (Human ACVR2A): 2.57 OD
optical density (Goat anti-Human Kappa): 3.48 OD
B16: 370_A04 (antibody, V domains shown)
VH: B14 VH with D31S, S32Y, H35N, N50G, G59S, K98R
VL: B1 VL with V30I, S31T, V47L, T94N

optical density (Mouse ACVR2A): 3.74 OD
optical density (Human ACVR2A): 3.59 OD
optical density (Goat anti-Human Kappa): 3.6 OD
B17: 370_D04 (antibody, V domains shown)
VH: B1 VH with S30D, G33S, S50N, S59G
VL: B1 VL with V30L, S31T, T94N

optical density (Mouse ACVR2A): 3.02 OD
optical density (Human ACVR2A): 2.9 OD
optical density (Goat anti-Human Kappa): 3.61 OD
B18: 370_E06 (antibody, V domains shown)
VH: B1 VH with A49S, S50G
VL: B1 VL with V30L, A51T, R54L

optical density (Mouse ACVR2A): 3.34 OD
optical density (Human ACVR2A): 3.25 OD
optical density (Goat anti-Human Kappa): 3.54 OD
B19: 369_H05 (antibody, V domains shown)
VH: B1 VH with S50N, S55G, K58T, S59G
VL: B1 VL with L33V, V47L, D93S, T94N

optical density (Mouse ACVR2A): 3.74 OD
optical density (Human ACVR2A): 3.64 OD
optical density (Goat anti-Human Kappa): 3.57 OD
B20: 370_E03 (antibody, V domains shown)
VH: B1 VH with A49S, S55G, S59G
VL: B1 VL with V30L, S31T, A50Y, T52S, S53N, T94S

optical density (Mouse ACVR2A): 3.19 OD
optical density (Human ACVR2A): 3.06 OD
optical density (Goat anti-Human Kappa): 3.72 OD
B21: 370_A12 (antibody, V domains shown)
VH: B1 VH with S50G, S55G, K58T
VL: B1 VL with V30L, S31T, V47L, R54L, T94S

optical density (Mouse ACVR2A): 3.55 OD
optical density (Human ACVR2A): 3.21 OD
optical density (Goat anti-Human Kappa): 3.56 OD
B22: 370_C05 (antibody, V domains shown)
VH: B1 VH with G33S, S50G, K58T, S59G
VL: B1 VL with V30L, L33V, D93N, T94S

optical density (Mouse ACVR2A): 1.88 OD
optical density (Human ACVR2A): 1.77 OD
optical density (Goat anti-Human Kappa): 2.65 OD
B23: 369_G12 (antibody, V domains shown)
VH: B1 VH with G33S, S50N, S55G, K58T, S59G
VL: B1 VL with V30L, S31T, L33V, A55H, Y92D, D93N

optical density (Mouse ACVR2A): 3.07 OD
optical density (Human ACVR2A): 3.11 OD
optical density (Goat anti-Human Kappa): 3.51 OD
B24: 369_F06 (antibody, V domains shown)
VH: B14 VH with S32Y, H35N, S49A, N50G, T58K, K98R
VL: B1 VL with L33V, T94S

optical density (Mouse ACVR2A): 3.37 OD
optical density (Human ACVR2A): 3.2 OD
optical density (Goat anti-Human Kappa): 3.66 OD
B25: 369_F11 (antibody, V domains shown)
VH: B1 VH with S30D, A49S, S50N
VL: B1 VL with V30I, V47L, T94L

optical density (Mouse ACVR2A): 2.75 OD
optical density (Human ACVR2A): 2.58 OD
optical density (Goat anti-Human Kappa): 3.44 OD
B26: 369_F03 (antibody, V domains shown)
VH: B1 VH with S31D, A49S, S50G, K58T
VL: B1 VL with L33V, V47L, R54L, T94S
